According to publication PMC12375888 (Febs Letters, 2025):

How the values were obtained:
[1] = molecular target: T1, Mycobacterium tuberculosis thiosulfate sulfurtransferase SseA (Mycobacterium tuberculosis, UniProt P9WHF7 1-297, RED-NHS dye on primary amines (lysine residues), degree of labeling ~0.5, in the MST experiment only); assay: cell-based or functional assay
T1 sequence: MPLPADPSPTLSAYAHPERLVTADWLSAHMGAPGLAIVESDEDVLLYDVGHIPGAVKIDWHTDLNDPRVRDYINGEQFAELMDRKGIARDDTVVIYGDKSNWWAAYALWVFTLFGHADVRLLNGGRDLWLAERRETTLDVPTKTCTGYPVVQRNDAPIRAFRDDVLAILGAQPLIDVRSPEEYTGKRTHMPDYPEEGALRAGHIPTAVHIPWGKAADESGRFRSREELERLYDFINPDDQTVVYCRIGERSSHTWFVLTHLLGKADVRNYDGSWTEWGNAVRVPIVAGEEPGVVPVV

[2] = molecular target: T1, Mycobacterium tuberculosis thiosulfate …; assay: MST; 10 nM SseA labelled with RED-NHS dye, label-free SufE Mtb titrated from 1.5 nM to 50 uM; 25 °C, 50 mM sodium phosphate pH 7.8, 0.05% Tween-20; Monolith NT.115; settings: both partners purified
[3] = molecular target: T1, Mycobacterium tuberculosis thiosulfate …; assay: ITC; 10 uM SseA in the cell titrated with 100 uM SufE; PBS pH 8.0 (phosphate 20 mM, NaCl 150 mM, DTT 2 mM), 25 °C; single binding site model; settings: both partners purified

B1: Mycobacterium tuberculosis SufE-like protein Rv3284 (SufE Mtb) (natural protein)
chain: MTAPASLPAPLAEVVSDFAEVQGQDKLRLLLEFANELPALPSHLAESAMEPVPECQSPLFLHVDASDPNRVRLHFSAPAEAPTTRGFASILAAGLDEQPAADILAVPEDFYTELGLAALISPLRLRGMSAMLARIKRRLREAD
notes: Tag-free after TEV cleavage; also called SseE; not shown: His6, N-terminal, cleaved; GST, N-terminal, cleaved
- thiosulfate:cyanide sulfurtransferase activity of 10 uM SseA with increasing SufE Mtb (10-100 uM) [1]: 4 fold
- Kd [2]: 3 ± 0.7 µM
- Kd [3]: 3.3 ± 0.6 µM
- dH [3]: -11.6 kcal/mol
- stoichiometry N [3]: 1
